In patent publication US20120058102A1:

Biological target: ZFHD-FKBP fusion with 3 copies of the drug binding domain (3xFKBP)
Test: cell-based or functional assay

## FRB-TA fusion (FRB fragment of FRAP/mTOR fused to a portion of human NF-KB p65 as transcription activator)
  luciferase expression in mice (Xenogen imaging) after rapamycin 2 mg/kg IP, against pre-induction; Group 2, transcription factor unit under the CMV promoter: > 2 logs
  luciferase expression in mice (Xenogen imaging) after rapamycin 2 mg/kg IP, against pre-induction; Group 4, transcription factor unit under the TBG promoter: > 100 fold
